Reference: the supplement of paper PMC9170038

Test system: MS2 coat protein
Assay: apparent KD of MS2 coat protein; designed switch direction (-1 OFF switch, 1 ON switch): -1; higher = weaker reporter binding
Procedure, shortened: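 Transcription of designed RNA switches on Illumina chips was done by stalled E. coli RNA polymerase. SNAP-549-labelled MS2 coat protein was then titrated in doubling steps from 0.7 or 1.5 nM to 3 µM, with steps of 0.8–1.5 h at the lowest and 10–20 min at the highest concentration. The per-design median over clusters of curve-fitted normalised fluorescence is reported as apparent KD.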

[1] = Eterna round: R95, input ligand: FMN 200 uM
[2] = Eterna round: R95, input ligand: microRNA oligo, concentration not stated
[3] = Eterna round: R95, input ligand: none
[4] = input ligand: microRNA oligo, concentration not stated

Sequence | apparent KD of MS2 coat protein (input ligand: FMN 200 uM) [nM] | apparent KD of MS2 coat protein (input ligand: none) [nM] | apparent KD of MS2 coat protein [1] [nM] | apparent KD of MS2 coat protein [2] [nM] | apparent KD of MS2 coat protein [3] [nM] | apparent KD of MS2 coat protein [4] [nM]
CUAAUACAUCAGGAUAUCUAUGAUUAUAGCCAUAGAGAAGGGAUGACAUGAGGAUCACCCAUGUCAAAGGGUGA [eternacac ex6r4 sub21] (Eterna round: R97, puzzle: Exclusion 6) | 426 | 879 | – | – | – | –
UUUUUCUCAGGAUAUACAUGAGGAUCACCCAUGUAUAUUGAUGAUAAUACAUGGGAAUGUAGAAGGGAGCUCAU [Omei Ex3 Pseudoloop 16] (Eterna round: R97, puzzle: Exclusion 3) | 87.9 | 95.7 | – | – | – | –
UAGAAUCGAGGAUAUACAUGAGGAUCACCCAUGUGUGGCCACACGGUGUGGUCGUCAGGUAGAAGGCGAUUACA [Exclusion 3 - Mod of Jieux's Gilly Gone Silly 23 v.3] (puzzle: Exclusion 3) | – | – | 19.9 | 22.8 | 53.2 | –
AUGUGCACGCUGCGAUCCUACAUGAGGAUCACCCAUGUGGUCUGGUGGCGUGGGUCACCGGACUUGGCUCGUCUUGG [salish99_S_TOV1_R5_075] (Eterna round: R97, puzzle: Sensor, turn-off variant 1) | 139 | 170 | – | – | – | –
AUAAUAAAGGAGGAUAUCGUAUCGGAAACGAUACGAGAAGGUCUAACAUGAGGAUCACCCAUGUUCCUCAAUAA [Mat - Exclusion 6 - Eli Mod - D48] (puzzle: Exclusion 6) | – | – | 54.5 | 35.9 | 36.1 | –
GUACUGACAGGAUAUACAUGAGGAUCACCCAUGUCCUUAAGCUGACAAAAGUCAGCAAGUAGAAGGGUCUGUAC [Omei Ex3 Model Bachelor's Dilema v1] (Eterna round: R97, puzzle: Exclusion 3) | 498 | 79.4 | – | – | – | –
UAUGUUAGCACAGGAUAUUGUUAUUUUUUUUUUCAAGAAGGGUGUACAUGAGGAUCACCCAUGUUAUGGUUUUAUCUUUUACAA [JR_ExcNG1_Sub012] (Eterna round: R96, puzzle: Exclusion NG 1) | 877 | 809 | – | – | – | 247
ACAUGAGGAUCACCCAUGUGACAAUAAUGGCUGAUACAGAGACAGGAUAUUCGUGAAUAUCUAACGAAGAAGGGUCAUGACUGG [Deportation 69 - Jieux - Exclusion NG 3] (Eterna round: R96, puzzle: Exclusion NG 3) | 37.9 | 51.8 | – | – | – | 45.7
ACCUCACAUGAGGAUCACCCAUGUCAGGAUAUAUUGUGCAAGCGCCGUGGCGUAUGUAGUAGAAGGGACGAAAC [Eternabot (L1) Solution 77] (Eterna round: R97, puzzle: Exclusion 1) | 18.3 | 17.8 | – | – | – | –
UCCAACCCUGUGAGGAUAUCGUCCAUUAUUUGUAACGAGAAGGCACAUGAGGAUCACCCAUGUUUUUUAUUUUU [JR_BMOE4_Sub080] (puzzle: Brourd's mod of Exclusion 4) | – | – | 83.7 | 28 | 22.5 | –
GCUAGGCAUGUCAGGAUAUGCAGAUCCUUGGAUCUGCAGAAGGGACAUGAGGAUCACCCAUGUGCCAACCUAGC [Mat - Exclusion 4 - JL Mod - D11] (Eterna round: R97, puzzle: Brourd's mod of Exclusion 4) | 609 | 47 | – | – | – | –
UGAUGUACUCAGGAUAUGAGUAGCUUUCGAGCAUCAGAAGGGAGUACAUGAGGAUCACCCAUGUUGGCCAUGUU [EX6 C.9] (Eterna round: R97, puzzle: Exclusion 6) | 81.2 | 683 | – | – | – | –
UUCAUGUGAGGAUAUGUGUACUGUUUUUUGUUUAGAUGUACACAGAAGGCACAUGAGGAUCACCCAUGUAGUAC [Ex4 - 3 - 32] (puzzle: Exclusion 4) | – | – | – | 30 | – | –
UCCUCACAUGAGGAUCACCCAUGUCAGGAUAUAAGAAACGCGGCAGGCAGCCGCAAAAUUAGAAGGGACAUUAA [EX1 A.27] (Eterna round: R97, puzzle: Exclusion 1) | 47.5 | 18.2 | – | – | – | –
AAUUCACAUGAGGAUCACCCAUGUCAGGAUAUGGUUUUAUUUUUUUCUUUUCUUGAUUCCAGAAGGGACAGCUA (puzzle: Exclusion 1) | – | – | – | 70.8 | – | –
AGUCCAGAUGUUAGGAUAUGCAACUAGCCAUUGUAGCAGAAGGAACAUGAGGAUCACCCAUGUACAAAGACCCG [Edgeraer] (puzzle: Brourd's mod of Exclusion 4) | – | – | 47.4 | 13.4 | 11.3 | –
AAUAACAAGCCGAUCCUAAACAUGAGGAUCACCCAUGUGCUCGUCUUGUAAAGUACUAUCACGAAAGUGAUAGUACA (puzzle: Sensor v3, turn-off variant 1) | – | – | 16.3 | 345 | 14.5 | –

Sequence | apparent KD of MS2 coat protein (input ligand: FMN 200 uM) [nM] | apparent KD of MS2 coat protein (input ligand: none) [nM] | apparent KD of MS2 coat protein [1] [nM] | apparent KD of MS2 coat protein [2] [nM] | apparent KD of MS2 coat protein [3] [nM] | apparent KD of MS2 coat protein [4] [nM]
UACAUGAGGAUCACCCAUGUUUUGUCGUGUAUGGUAUUUAUCUAGGAUAUCAAUCUAUUAAUUUAUGAGAAGGAGAAUAUUAAU [JMF's solution 52] (Eterna round: R96, puzzle: Exclusion NG 3) | – | – | – | – | – | 28.8
UGUUGUUACGCAGGAUAUGUAUGAGGAUCACCCAUAAGAGUUGAUGUACCAUGAGGAUCACCCAUGUAGAAGGGCGGGUUAACA [pwkr exNG2 2xF5 1xFMN.9] (Eterna round: R96, puzzle: Exclusion NG 2) | 365 | 234 | – | – | – | 194
AGCUUUUUGUUCGUCUUACACAUGAGGAUCACCCAUGUGUCGGACCGCAUCGAUAGAUGUAGACCGAGAAGCAUGGG [Omdei Mir OFFv1 C9] (Eterna round: R97, puzzle: Sensor, turn-off variant 1) | 95.6 | 98.9 | – | – | – | –
AAUAACAGAGGAUAUACUAUAAUAUGAAUAAAAUAAAUAAAACAUGAGGAUCACCCAUGUAGAAGGCUGAAUAA [JMF's Not so obvious solution 10] (puzzle: Exclusion 2) | – | – | 17.1 | 20 | 21.1 | –
AAGAAACGAGGAUAUACAGUUGAGUGAGAGAGGGAAGUGUUACAUGAGGAUCACCCAUGUAGAAGGCGUGAGAG [JR_Exclu2_Sub088] (puzzle: Exclusion 2) | – | – | 32.9 | 31.4 | 33.6 | –
CCGUUAUGAGGAUAUCGCUUGAAAGACAUGAGGAUCACCCAUGUGGGCGCGUCCUCAUGGCGAGAAGGCAUUACGA [Enmaatama] (puzzle: Exclusion 5) | – | – | 9.07 | 13.1 | 12.6 | –
ACGUGAUAUCUGUCGUUGGACAUGAGGAUCACCCAUGUGAGCUUUUUGCUCGUCUUAUAACCCGGUGACAGACCUUC [Aatbebeed] (puzzle: Sensor v3, turn-off variant 1) | – | – | 18.4 | 247 | 16.6 | –
CAAGCCUGAACGGCCGCUCACAUGAGGAUCACCCAUGUCACCUGUGCUAGAGGACCACAUUAAUCGCUUCGUCUUGG [Eternabot (L1) Solution 7] (Eterna round: R97, puzzle: Sensor, turn-off variant 1) | 69.8 | 88.9 | – | – | – | –
GCUUGUGGGCAAGGAUAUCCUACGUUGUUCUGGUUCGUGUCUGUCACAUGAGGAUCACCCAUGUGGGAGAAGGUGCCUUUGGUG [Design 62] (Eterna round: R96, puzzle: Exclusion NG 2) | 23.2 | 15.6 | – | – | – | 9.2
UGGGUUACCCAUGGAAGUAACAUGAGGAUCACCCAUGUAGGGCAAGUUUUUUGUUCGUCAUAGGCCGUGGGUUUGGA [JR_SV3TOV1_Sub021] (puzzle: Sensor v3, turn-off variant 1) | – | – | 30.4 | 56.8 | 32.4 | –
GAUUAGCGAGGAUAUACAUGAGGAUCACCCAUGUGAUCCUAAGGCUGAUCAAGCCUAUGUAGAAGGCGCAAAUC [salish99_ex3_r5_001] (Eterna round: R97, puzzle: Exclusion 3) | 35.2 | 224 | – | – | – | –
AUCGUGCAGCUUUGCUGUACGAGUACAUGAGGAUCACCCAUGUAGGAUAUGGUACGCUUUGCGUGCUAGAAGGAUAUGAGAUUA [EX ENG3 1.48] (Eterna round: R96, puzzle: Exclusion NG 3) | 40.2 | 31 | – | – | – | 28.5
CGUUUGCAUUUUGCUCGUCACAUGAGGAUCACCCAUGUUAUGCUACAGUACGCUAGGAUCGGCGUCUGAGGGCUUUA [Eternabot (Original) Solution 1] (Eterna round: R97, puzzle: Sensor, turn-off variant 1) | 25.2 | 27.7 | – | – | – | –
AGCGUGGAGACAGGAUAUGAGAAUAGAUAGAACUCAGAAGGGUCACAUGAGGAUCACCCAUGUAAAGUCUUGAGGCUGCGUGGU [Prohibition 7 - Jieux - Exclusion NG 1] (Eterna round: R96, puzzle: Exclusion NG 1) | 341 | 109 | – | – | – | 74.1
AGGUGCUUCAGGAGACAUGAGGAUCACCCAUGUUGAGUUAGCGAGGAUAUCGGUAACCCAUGUGAUGAGAAGGCGCAAACCAAU [Ex NG3 #46] (Eterna round: R96, puzzle: Exclusion NG 3) | 92.9 | 74.1 | – | – | – | 52.4
UUGACUGGCGAGGAUAUCUCGCAAUAGUUAGGGAGAGAAGGUGCUACAUGAGGAUCACCCAUGUCAAACGAACC [Eternabot (L1) Solution 58] (Eterna round: R97, puzzle: Exclusion 6) | 17.7 | 21.9 | – | – | – | –
